# In US10945940B2, “Method of preparing ultra-low molecular weight keratin peptide” (KYUNGPOOK NATIONAL UNIVERSITY INDUSTRY-ACADEMIC COOPERATION …, priority 2015, dated 2021):
# Tests used:
# [1] = biological target: T1, Matrix metalloproteinase-1 (MMP-1) enzyme (Homo sapiens, UniProt P03956); assay: MMP-1 enzyme activity inhibition in vitro (MMP-1 Fluorometric Drug Discovery Kit); type: biochemical; conditions: for inhibition of MMP-1 enzyme activity compared to the group treated with the only MMP-1 enzyme: 10 μM; for significant effect of inhibiting MMP-1 activity: FIG. 5A
# T1 construct: purchased Enzo
# T1 sequence (P03956 100-269 limits assumed): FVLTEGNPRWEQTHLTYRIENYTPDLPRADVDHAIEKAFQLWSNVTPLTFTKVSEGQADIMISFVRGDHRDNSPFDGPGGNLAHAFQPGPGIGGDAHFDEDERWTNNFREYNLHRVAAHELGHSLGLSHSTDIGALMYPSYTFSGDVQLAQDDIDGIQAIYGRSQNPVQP
# Procedure: MMP-1 Fluorometric Drug Discovery Kit manufactured by Enzo company was used to evaluate an ability to inhibit Matrix metalloproteinase-1 (MMP-1) enzyme activity in the peptide synthesized in Example 3. N-Isobutyl-N-(4-methoxyphenylsulfonyl) glycyl hydroxamic acid (NNGH) which is known to inhibit MMP-1 activity was used as a positive control group, and NNGH was treated at a concentration of 0.65 μM. […] The substrate was added to the reaction mixture, fluorescence thereof was measured at Ex/Em=540/590 nm, and the ability to inhibit MMP-1 activity was evaluated according to the following Equation 2. The results of the ability of inhibiting MMP-1 activity are illustrated in FIG. 5A. Ability to inhibit MMP-1activity(%)=Fluorescence intensity of sample-added group/Fluorescence intensity of non-treated group×100 [Equation 2]
# MMP-1 expression = assay: Inhibition of UVB-induced MMP-1 expression in human dermal fibroblasts (Western blot); type: cell-based; conditions: 10 μM, 20 mJ/cm^2 UVB
# Procedure: Then, ultraviolet ray B was irradiated with 20 mJ/cm^2 using Vilber Lourmat (BioLink Crosslinker, France), cultured for 24 hours, and then cell proteins were recovered. At this time, the medium was removed before ultraviolet irradiation, and then washed with phosphate buffered saline (PBS) solution to remove serum components in the medium and then irradiated with ultraviolet ray B. The cells were washed twice with PBS solution to recover the proteins, and then the cells adhered to the bottom were recovered using a lysis buffer and centrifuged at 14,000 rpm for 10 minutes. After each supernatant was recovered, the protein concentration of each cell supernatant was quantified according to the method of use with a protein assay kit (Bio-Rad, USA) using bovine serum albumin (BSA) as the reference material. About […] protein from each of the protein extracts was denatured and separated by 8% gel sodium dodecyl sulphate-polyacrylamide gel electrophoresis (SDS-PAGE) and transferred to a polyvinylidene fluoride (PVDF) membrane at 120 mA for 2 hours. […]
inhibition of MMP-1 enzyme activity compared to the group treated with the only MMP-1 enzyme [1],Substance,significant effect of inhibiting MMP-1 activity [1],inhibition of MMP-1 expression compared to the group treated with the only UVB (MMP-1 expression)
inhibited the activity of MMP-1 enzyme,GLGSR [2-2],significant effect of inhibiting MMP-1 activity,~35%
inhibited the activity of MMP-1 enzyme,GPTPL [2-1],significant effect of inhibiting MMP-1 activity,about 24%

# Further lines, the substance ahead of its results:
Substance,inhibition of MMP-1 enzyme activity compared to the group treated with the only MMP-1 enzyme [1],significant effect of inhibiting MMP-1 activity [1],inhibition of MMP-1 expression compared to the group treated with the only UVB (MMP-1 expression)
FPQN [2n7-5],inhibited the activity of MMP-1 enzyme,,
GFGGF [2n7-4],inhibited the activity of MMP-1 enzyme,significant effect of inhibiting MMP-1 activity,
GLSGL [KP7-1],inhibited the activity of MMP-1 enzyme,significant effect of inhibiting MMP-1 activity,
IQPSPV [KP7-2],inhibited the activity of MMP-1 enzyme,significant effect of inhibiting MMP-1 activity,
PISS [2n7-2],inhibited the activity of MMP-1 enzyme,,
